For the assay, the target named is Leukocyte Function Antigen-1 (LFA-1), on cells (Jurkat T cells, human T cells, PBMC) (human) (UniProt P20701). The assay is described as follows: cell-based or functional assay.
Chain of Leukocyte Function Antigen-1 (LFA-1), on cells (Jurkat T cells, human T cells, PBMC) (human) (P20701 26-1170, chain 1 of 2): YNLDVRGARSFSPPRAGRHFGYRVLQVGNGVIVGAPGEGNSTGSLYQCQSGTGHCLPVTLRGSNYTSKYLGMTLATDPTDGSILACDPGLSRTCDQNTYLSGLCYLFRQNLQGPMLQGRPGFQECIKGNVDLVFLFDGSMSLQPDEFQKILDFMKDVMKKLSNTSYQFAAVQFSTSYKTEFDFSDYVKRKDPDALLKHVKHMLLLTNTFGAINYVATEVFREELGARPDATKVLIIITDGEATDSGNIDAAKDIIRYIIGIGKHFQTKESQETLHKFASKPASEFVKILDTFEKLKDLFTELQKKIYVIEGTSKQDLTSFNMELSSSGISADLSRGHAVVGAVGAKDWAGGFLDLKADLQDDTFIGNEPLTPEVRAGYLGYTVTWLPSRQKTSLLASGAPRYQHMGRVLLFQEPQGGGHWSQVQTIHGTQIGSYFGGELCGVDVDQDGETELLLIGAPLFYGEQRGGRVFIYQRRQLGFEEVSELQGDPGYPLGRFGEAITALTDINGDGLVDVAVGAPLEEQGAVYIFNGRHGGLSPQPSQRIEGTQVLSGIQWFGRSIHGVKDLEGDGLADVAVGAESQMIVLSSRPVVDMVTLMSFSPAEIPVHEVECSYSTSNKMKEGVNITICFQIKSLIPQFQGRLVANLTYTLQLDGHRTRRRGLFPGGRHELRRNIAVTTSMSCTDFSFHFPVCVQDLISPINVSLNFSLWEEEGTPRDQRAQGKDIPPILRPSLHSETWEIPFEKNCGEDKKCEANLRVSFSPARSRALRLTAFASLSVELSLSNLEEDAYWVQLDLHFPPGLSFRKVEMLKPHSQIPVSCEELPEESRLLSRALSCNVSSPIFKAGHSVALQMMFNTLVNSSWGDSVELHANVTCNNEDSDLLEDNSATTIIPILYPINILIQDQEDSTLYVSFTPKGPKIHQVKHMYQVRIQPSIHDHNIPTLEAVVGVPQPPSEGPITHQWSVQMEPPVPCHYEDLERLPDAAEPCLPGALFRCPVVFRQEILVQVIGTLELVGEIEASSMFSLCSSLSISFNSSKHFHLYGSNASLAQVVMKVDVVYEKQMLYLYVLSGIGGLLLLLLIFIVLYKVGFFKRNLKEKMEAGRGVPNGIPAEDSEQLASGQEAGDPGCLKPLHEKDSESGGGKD
Chain of Leukocyte Function Antigen-1 (LFA-1), on cells (Jurkat T cells, human T cells, PBMC) (human) (P05107 23-769, chain 2 of 2, further chain): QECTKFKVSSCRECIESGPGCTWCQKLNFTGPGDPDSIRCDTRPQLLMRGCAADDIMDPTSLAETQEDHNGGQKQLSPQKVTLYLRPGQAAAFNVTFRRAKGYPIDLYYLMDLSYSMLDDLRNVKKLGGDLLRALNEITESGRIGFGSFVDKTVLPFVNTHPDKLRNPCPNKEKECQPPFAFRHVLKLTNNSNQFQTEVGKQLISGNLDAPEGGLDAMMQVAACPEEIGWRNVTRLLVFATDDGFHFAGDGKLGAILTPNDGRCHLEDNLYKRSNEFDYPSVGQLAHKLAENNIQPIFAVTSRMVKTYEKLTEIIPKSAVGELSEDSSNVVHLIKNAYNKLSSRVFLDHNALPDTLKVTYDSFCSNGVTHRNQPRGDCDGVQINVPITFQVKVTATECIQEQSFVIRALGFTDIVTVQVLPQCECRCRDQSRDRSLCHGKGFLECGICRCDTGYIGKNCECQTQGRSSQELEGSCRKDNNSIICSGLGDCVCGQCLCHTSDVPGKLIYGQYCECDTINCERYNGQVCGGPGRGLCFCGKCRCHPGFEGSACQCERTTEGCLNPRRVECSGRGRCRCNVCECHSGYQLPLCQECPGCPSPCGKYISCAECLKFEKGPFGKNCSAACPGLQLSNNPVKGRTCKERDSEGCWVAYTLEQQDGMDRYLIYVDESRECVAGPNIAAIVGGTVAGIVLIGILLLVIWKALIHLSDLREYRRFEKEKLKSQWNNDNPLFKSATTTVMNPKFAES

Chain of recombinant human ICAM-1-FC (P05362 28-480 limits assumed): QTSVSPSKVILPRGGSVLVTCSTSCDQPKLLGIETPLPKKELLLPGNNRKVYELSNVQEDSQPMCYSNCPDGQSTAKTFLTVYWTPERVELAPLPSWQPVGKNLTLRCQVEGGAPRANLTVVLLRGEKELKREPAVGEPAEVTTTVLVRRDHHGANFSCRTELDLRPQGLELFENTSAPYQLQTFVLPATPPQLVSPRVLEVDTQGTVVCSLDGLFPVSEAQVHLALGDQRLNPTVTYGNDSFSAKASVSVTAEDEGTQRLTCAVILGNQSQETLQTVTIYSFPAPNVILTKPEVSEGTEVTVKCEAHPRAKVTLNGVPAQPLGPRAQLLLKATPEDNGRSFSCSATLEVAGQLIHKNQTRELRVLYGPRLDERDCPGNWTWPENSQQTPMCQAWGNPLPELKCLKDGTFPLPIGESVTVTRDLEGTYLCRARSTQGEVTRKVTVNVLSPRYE

“recombinant human ICAM-1-FC (from UniProt P05362 28-480) (Fc fusion)” gave a frequency of the perforin negative population, CD56+CD8med cells of 13.7% and a granzyme-A negative population, CD56+CD8high cells of 4.12%.

These data come from patent publication US20150241442A1.
